Reference: patent publication US7998940B2, “Aptamers to von Willebrand factor and their use as thrombotic disease therapeutics” (Archemix Corp., priority 2004, dated 2011)
Where a chain is given by its changes, count along the chain named.

B1: AMX237.B1: DNA SELEX 2 aptamer clone (nucleic acid)
chain: CTACCTACGATCTGACTAGCTTGGTAGCGACACAGTGGAGCTGCGGTTTGGTCGACGTCAGCTTACTCTCATGTAGTTCC
modifications: DNA, backbone not given here
notes: DNA SELEX 2 aptamer clone
B2: AMX236.E6: DNA SELEX 2 aptamer clone (nucleic acid)
chain: B1 chain with A32C, A34T
modifications: DNA, backbone not given here
notes: DNA SELEX 2 aptamer clone
B3: AMX237.H10: DNA SELEX 2 aptamer clone (nucleic acid)
DNA: B1 chain with A32T, T36A
modifications: DNA, backbone not given here
notes: DNA SELEX 2 aptamer clone
B4: AMX237.H8: DNA SELEX 2 aptamer clone (nucleic acid)
DNA: B1 chain with A32T, C33T, A34T, G57A
modifications: DNA, backbone not given here
notes: DNA SELEX 2 aptamer clone
B5: AMX238.D9: DNA SELEX 2 aptamer clone (nucleic acid)
DNA: CTACCTACGATCTGACTAGCCAGTTCTGGGAAAAATCATTTTTTATTTCGATCGTATTTGCTTACTCTCATGTAGTTCC
modifications: DNA, backbone not given here
notes: DNA SELEX 2 aptamer clone
B6: AMX236.F7: DNA SELEX 2 aptamer clone (nucleic acid)
chain: CTACCTACGATCTGACTAGCCCCCACTTATCGTGTACCTTATGATATGTCGAATACTCTTGCTTACTCTCATGTAGTTCC
modifications: DNA, backbone not given here
notes: DNA SELEX 2 aptamer clone
B7: AMX238.G4: DNA SELEX 2 aptamer clone (nucleic acid)
DNA: CTACCTACGATCTGACTAGCTTGTCGCACTTTTGGTTGGTCTGGTTGGTTCTAAGTGCGCTTACTCTCATGTAGTTCC
modifications: DNA, backbone not given here
notes: DNA SELEX 2 aptamer clone
B8: AMX238.H9: DNA SELEX 2 aptamer clone (nucleic acid)
DNA: B7 DNA with C51T
modifications: DNA, backbone not given here
notes: DNA SELEX 2 aptamer clone
B9: AMX236.C1: DNA SELEX 2 aptamer clone (nucleic acid)
chain: CTACCTACGATCTGACTAGCGGAATGAGAATGTTGGTGGATTGCTCAGGTCTGCTGGCTGCTTACTCTCATGTAGTTCC
modifications: DNA, backbone not given here
notes: DNA SELEX 2 aptamer clone
B10: AMX238.A6: DNA SELEX 2 aptamer clone (nucleic acid)
DNA: B9 chain with T33C, T34A, G36A
modifications: DNA, backbone not given here
notes: DNA SELEX 2 aptamer clone
B11: AMX236.E2: DNA SELEX 2 aptamer clone (nucleic acid)
chain: B9 chain with A29T, T33C, G36A
modifications: DNA, backbone not given here
notes: DNA SELEX 2 aptamer clone
B12: AMX237.C1: DNA SELEX 2 aptamer clone (nucleic acid)
DNA: B9 chain with A29G, T33C
modifications: DNA, backbone not given here
notes: DNA SELEX 2 aptamer clone
B13: AMX238.F6: DNA SELEX 2 aptamer clone (nucleic acid)
DNA: B9 chain with A29T, T33C
modifications: DNA, backbone not given here
notes: DNA SELEX 2 aptamer clone
B14: AMX236.C6: DNA SELEX 2 aptamer clone (nucleic acid)
chain: B9 chain with A30G, T33C
modifications: DNA, backbone not given here
notes: DNA SELEX 2 aptamer clone
B15: AMX237.B12: DNA SELEX 2 aptamer clone (nucleic acid)
DNA: B9 chain with T33C, T34A
modifications: DNA, backbone not given here
notes: DNA SELEX 2 aptamer clone
B16: AMX238.A11: DNA SELEX 2 aptamer clone (nucleic acid)
DNA: B9 chain with A30G
modifications: DNA, backbone not given here
notes: DNA SELEX 2 aptamer clone
B17: AMX236.H1: DNA SELEX 2 aptamer clone (nucleic acid)
chain: CTACCTACGATCTGACTAGCCTCAGATTGACTCCGGCCGACTTGTTTTAATCTTCTGAGTGCTTACTCTCATGTAGTTCC
modifications: DNA, backbone not given here
notes: DNA SELEX 2 aptamer clone

What was measured:
[1] = tested on: full length human vWF; experiment: 3-point dot blot screen, full length human vWF; type: binding; conditions: 20 nM full length human vWF, ratio of fraction of aptamer bound with target protein to fraction bound without protein
From the text: When a significant positive ratio of binding of DNA in the presence of human or rabbit vWF A1 domain versus in the absence of protein was seen, the pools were cloned using the TOPO TA cloning kit (Invitrogen Cat. #45-0641, Carlsbad, Calif.) according to the manufacturer's instructions. Round 7 and 11 pool templates were cloned and sequenced (218 total sequences), producing 146 unique clones within 12 sequence families of which sequences from six families show vWF target binding activity. All unique clones were assayed twice in a 3-point dot blot screen (no protein target control, 20 nM full length human vWF (Calbiochem Cat. #681300, La Jolla, Calif.), or 20 nM rabbit vWF A1 domain. The data is presented in the third and fourth columns of Table 17 below as the ratio of the fraction of the aptamer bound to the nitrocellulose in the presence of the target protein to the fraction of aptamer bound in the absence of the target protein.

[2] = tested on: rabbit vWF A1 domain (SEQ ID NO 6); experiment: 3-point dot blot screen, rabbit vWF A1 domain; type: binding; conditions: 3-point dot blot screen, 20 nM rabbit vWF A1 domain; ratio of fraction of aptamer bound with target protein to fraction bound without protein
Summary of the method: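 Rabbit vWF A1 domain binding was screened by dot blot using three conditions: no target protein, human vWF, and rabbit vWF A1 domain at 100 nM (20 nM in the screen run twice). Radiolabeled aptamer bound to nitrocellulose was quantified, and results are expressed as the ratio of bound fraction with protein to bound fraction without protein.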

Chain of rabbit vWF A1 domain (SEQ ID NO 6) (as listed by the source): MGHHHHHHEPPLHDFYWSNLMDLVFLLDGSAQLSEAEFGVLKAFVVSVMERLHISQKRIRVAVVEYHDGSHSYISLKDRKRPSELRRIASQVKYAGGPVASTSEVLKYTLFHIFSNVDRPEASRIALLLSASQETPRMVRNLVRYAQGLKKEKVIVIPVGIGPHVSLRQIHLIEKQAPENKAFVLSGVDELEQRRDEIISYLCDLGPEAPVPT

Molecule	Screen- Human/No Protein [1]	Screen Rabbit/No Protein [2]
B1	2.00	2.10
B2	1.31	1.49
B3	1.71	1.94
B4	1.21	1.41
B5	1.22	0.97
B6	1.18	1.20
B7	1.09	1.39
B8	1.11	1.32
B9	1.03	3.28
B10	0.92	3.47
B11	0.93	3.59
B12	0.76	3.47
B13	1.18	5.36
B14	1.06	5.77
B15	1.13	4.67
B16	0.85	4.54
B17	1.10	1.14
